This experiment addresses His-tagged dimeric ϕO11 Dut (S. aureus phage ϕO11). The experiment is described as follows: crystal structure; ϕO11 Dut (10 mg/ml) with 0.5 mM dUPNPP and 5 mM MgCl2; sitting drop at 21°C; 0.2 M magnesium chloride, 0.1 M Tris-HCl pH 8.5, 20% PEG 8000; 2.1 Å.

Broadly, the stoichiometry N is the number of molecules, sites or subunits per partner or assembly.

With His-tagged dimeric ϕO11 Dut (enzyme), the stoichiometry N was determined as 2.

For the origin of these results see PMC5779228.
